Reference: patent publication US20250171536A1 (CSL INNOVATION, published 2025)

T1: Murine CD117, soluble (MuCD117 1-527) (mouse, UniProt P05532 25-527)
T1 construct: Residues as printed
T1 sequence: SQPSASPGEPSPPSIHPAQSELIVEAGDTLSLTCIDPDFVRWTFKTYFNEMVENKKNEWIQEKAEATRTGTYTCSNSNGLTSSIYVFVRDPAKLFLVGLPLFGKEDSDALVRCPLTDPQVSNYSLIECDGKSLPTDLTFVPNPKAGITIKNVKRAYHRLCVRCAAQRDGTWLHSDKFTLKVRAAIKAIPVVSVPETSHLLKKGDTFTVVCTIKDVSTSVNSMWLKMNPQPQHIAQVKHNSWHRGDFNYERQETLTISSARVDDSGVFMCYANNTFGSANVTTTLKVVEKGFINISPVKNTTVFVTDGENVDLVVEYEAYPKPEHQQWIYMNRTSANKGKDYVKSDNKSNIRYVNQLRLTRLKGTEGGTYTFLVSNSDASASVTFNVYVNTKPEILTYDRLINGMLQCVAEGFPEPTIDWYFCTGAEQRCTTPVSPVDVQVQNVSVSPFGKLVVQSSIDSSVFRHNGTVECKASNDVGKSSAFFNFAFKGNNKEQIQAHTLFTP

T2: Cyno CD117, soluble (cynoCD117 1-520) (cynomolgus monkey, UniProt P10721 26-520 (human entry))
T2 construct: Residues as printed
T2 chain: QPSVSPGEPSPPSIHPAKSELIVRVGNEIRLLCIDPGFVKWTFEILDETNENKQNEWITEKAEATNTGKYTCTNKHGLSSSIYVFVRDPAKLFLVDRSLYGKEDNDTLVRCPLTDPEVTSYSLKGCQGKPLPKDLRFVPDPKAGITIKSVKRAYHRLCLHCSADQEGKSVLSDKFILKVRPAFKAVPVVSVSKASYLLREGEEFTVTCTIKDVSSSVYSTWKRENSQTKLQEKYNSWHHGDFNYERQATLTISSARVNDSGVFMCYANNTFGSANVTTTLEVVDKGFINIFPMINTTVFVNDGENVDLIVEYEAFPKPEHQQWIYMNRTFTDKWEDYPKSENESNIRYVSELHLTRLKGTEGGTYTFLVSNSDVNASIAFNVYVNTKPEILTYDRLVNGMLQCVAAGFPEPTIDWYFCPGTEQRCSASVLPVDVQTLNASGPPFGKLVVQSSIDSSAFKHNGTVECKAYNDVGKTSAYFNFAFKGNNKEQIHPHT


Legend:
[1] = biological target: Human CD117 (c-kit), cell-surface expressed (human, UniProt P10721 26-976); test: cell-based or functional assay
[2] = biological target: T3, Soluble 8xHis-tagged N-terminal fragment of human CD117 (HuCD117 1-307) (human, UniProt P10721 26-307); test: SPR Biacore 4000, antibody captured on protein G, His-tagged fragment analyte, 1:1 fit, N=1
T3 construct: This range counts from the precursor start, so a signal peptide is probably cleaved in the secreted protein; also called N-terminal domain; soluble N-terminal; not shown: 8xHis tag

[3] = biological target: T4, Soluble 8xHis-tagged C-terminal fragment of human CD117 (HuCD117 308-524) (human, UniProt P10721 308-524); test: SPR (Biacore 4000), IgG4 antibody captured on protein G, soluble His-tagged fragment injected at 25, 75, 225 nM
T4 construct: C-terminal part of the extracellular region; also called C-terminal domain; not shown: 8xHis tag

[4] = biological target: T1, Murine CD117, soluble (MuCD117 1-527); test: SPR, captured antibody, soluble CD117 analyte
Method: (§1) Biacore 4000 was used for all binding analyses. Experiments were performed at pH 7.3, 37° C. and under flow rate of 30 μL/min. Human anti-CD117 antibodies were surface captured using either polyclonal goat anti-human IgG or IgA antibodies directly immobilised onto the carboxymethyl dextran surface of CM5 sensorchips to approximately 13,000 RU using standard NHS/EDC chemistry at pH 5. The immobilised antibody surface was pre-conditioned with ten injections of human polyclonal IgG (Privigen 60s, 10 μg/mL) each followed by a regeneration cycle with 100 mM H3PO4.
(§2) A total of 18 anti-CD117 antibodies (2 μg/mL) were tested as captured ligands against four soluble mammalian CD117 receptor variants: the N-terminal domain of human CD117 (HuCD1₁₇₁₋₃₀₈), full length human CD117 (HuCD1₁₇₁₋₅₂₄), cyno CD117 (cynoCD117₁₋₅₂₀), and murine CD117 (MuCD117₁₋₅₂₇).
(§3) CD117 proteins were prepared in two-fold dilutions ranging from 0.8 to 200 nM. Anti-CD117 antibodies huAb249, huAb85, huCK6 and huhzSR1 were used as positive controls. BM4 was prepared in an IgG and IgA2 format and used as negative control. Binding affinities were calculated from sensorgrams double-referenced using reference surface and blank buffer injection data gathered within each experiment.

[5] = biological target: T2, Cyno CD117, soluble (cynoCD117 1-520); test: SPR Biacore 4000, captured antibody, soluble CD117 analyte, 1:1 fit;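 also: antibodies captured on CM5 chips via goat anti-human IgG or IgA, CD117 analyte in two-fold series 0.8–200 nM, run at pH 7.3 and 37 °C, double-referenced sensorgrams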
Method: as §1, §2, §3

[6] = biological target: N-terminal domain of human CD117, soluble (HuCD117 1-308) (human, UniProt P10721 26-308); test: as above
Method: as §1, §2, §3

[7] = biological target: T5, Full length human CD117, soluble (HuCD117 1-524) (human, UniProt P10721 26-524); test: as above
T5 construct: also called full-length protein
T5 sequence (P10721 26-524): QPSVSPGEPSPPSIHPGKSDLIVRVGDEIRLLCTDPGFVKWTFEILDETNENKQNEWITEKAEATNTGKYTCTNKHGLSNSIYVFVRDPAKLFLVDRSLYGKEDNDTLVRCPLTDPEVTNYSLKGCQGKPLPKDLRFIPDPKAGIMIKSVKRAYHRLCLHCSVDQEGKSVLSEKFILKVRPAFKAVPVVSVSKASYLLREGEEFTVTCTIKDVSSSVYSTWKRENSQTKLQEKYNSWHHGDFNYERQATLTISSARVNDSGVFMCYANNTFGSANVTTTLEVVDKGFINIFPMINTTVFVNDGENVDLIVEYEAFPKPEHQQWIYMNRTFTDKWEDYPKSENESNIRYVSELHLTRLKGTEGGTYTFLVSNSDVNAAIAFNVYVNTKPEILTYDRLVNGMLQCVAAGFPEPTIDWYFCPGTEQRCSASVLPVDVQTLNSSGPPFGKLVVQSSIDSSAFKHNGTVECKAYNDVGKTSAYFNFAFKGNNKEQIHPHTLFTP
Method: as §1, §2, §3

T4 sequence (P10721 308-524): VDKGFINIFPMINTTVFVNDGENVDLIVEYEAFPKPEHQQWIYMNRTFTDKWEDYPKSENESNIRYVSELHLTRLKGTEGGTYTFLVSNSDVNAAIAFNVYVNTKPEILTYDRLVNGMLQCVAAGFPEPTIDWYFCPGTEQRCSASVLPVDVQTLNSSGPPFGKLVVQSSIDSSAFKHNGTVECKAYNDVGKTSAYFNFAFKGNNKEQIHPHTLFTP
Sequence of N-terminal domain of human CD117, soluble (HuCD117 1-308) (P10721 26-308): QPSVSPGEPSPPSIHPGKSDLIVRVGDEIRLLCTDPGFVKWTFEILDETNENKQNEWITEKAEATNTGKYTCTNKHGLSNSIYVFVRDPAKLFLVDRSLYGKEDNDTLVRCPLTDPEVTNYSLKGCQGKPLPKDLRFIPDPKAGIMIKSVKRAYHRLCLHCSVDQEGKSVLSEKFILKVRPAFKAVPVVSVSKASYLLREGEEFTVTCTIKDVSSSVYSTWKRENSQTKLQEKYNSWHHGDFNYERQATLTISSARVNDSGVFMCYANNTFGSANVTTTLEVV
Sequence of Human CD117 (c-kit), cell-surface expressed (P10721 26-976 limits assumed): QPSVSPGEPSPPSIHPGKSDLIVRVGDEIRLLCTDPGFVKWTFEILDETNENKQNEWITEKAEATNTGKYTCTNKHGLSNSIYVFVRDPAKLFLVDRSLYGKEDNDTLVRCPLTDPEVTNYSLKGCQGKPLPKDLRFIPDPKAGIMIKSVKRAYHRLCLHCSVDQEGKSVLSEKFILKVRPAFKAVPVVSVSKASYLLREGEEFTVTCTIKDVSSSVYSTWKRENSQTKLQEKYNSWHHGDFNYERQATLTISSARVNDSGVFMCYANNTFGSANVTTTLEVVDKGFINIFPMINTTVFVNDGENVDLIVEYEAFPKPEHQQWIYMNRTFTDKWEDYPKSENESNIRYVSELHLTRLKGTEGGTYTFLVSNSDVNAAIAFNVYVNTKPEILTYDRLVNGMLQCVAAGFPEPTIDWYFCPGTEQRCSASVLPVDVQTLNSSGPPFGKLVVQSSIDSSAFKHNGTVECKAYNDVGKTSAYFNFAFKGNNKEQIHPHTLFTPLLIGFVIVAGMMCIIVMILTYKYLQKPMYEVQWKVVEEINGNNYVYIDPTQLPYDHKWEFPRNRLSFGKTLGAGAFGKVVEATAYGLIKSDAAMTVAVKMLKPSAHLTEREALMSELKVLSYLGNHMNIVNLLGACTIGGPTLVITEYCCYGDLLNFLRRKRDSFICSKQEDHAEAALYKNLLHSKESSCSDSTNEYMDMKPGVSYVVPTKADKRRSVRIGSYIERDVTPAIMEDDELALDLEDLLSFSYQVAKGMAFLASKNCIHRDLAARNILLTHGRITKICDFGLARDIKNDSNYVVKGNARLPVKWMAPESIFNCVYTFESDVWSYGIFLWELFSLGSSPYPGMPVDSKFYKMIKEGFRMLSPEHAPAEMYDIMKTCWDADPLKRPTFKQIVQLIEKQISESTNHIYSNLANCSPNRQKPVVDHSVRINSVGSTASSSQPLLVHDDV
T3 sequence (P10721 26-307): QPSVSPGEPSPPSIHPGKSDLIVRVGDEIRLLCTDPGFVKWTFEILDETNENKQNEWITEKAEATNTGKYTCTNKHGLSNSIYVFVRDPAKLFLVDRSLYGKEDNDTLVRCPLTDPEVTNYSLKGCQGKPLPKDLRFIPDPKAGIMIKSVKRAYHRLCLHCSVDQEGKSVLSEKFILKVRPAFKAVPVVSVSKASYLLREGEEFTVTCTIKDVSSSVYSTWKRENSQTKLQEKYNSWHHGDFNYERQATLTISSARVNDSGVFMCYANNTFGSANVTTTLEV

| Binder | EC50 of trogocytosis (ADCT; DILC18 membrane uptake by neutrophils from CD117-transfected 293 cells) [1] [nM] | Normalised uptake (B max) in %, ADCT [1] [%] | Kd [2] [nM] | binding result [3] | Kd [5] [nM] | Kd [6] [nM] | Kd [7] [nM] | further results |
| --- | --- | --- | --- | --- | --- | --- | --- | --- |
| 3B3 IgA2 anti-CD117 antibody (Example 8) (antibody, V domains shown) VH: EVQLVESGGGVVQPGRSLRLSCAASGFTFSSYAMHWVRQAPGKGLEWVSVIYSGGSTYYADSVKGRFTISRDNSKNTLYLQMNSLRAEDTAVYYCARDSSGYRGDFDYWGQGTLVTVSS VL: SYELTQPPSVSVSPGQTASITCSGDKVGAKYVFWYQQKPGQSPVLVVYQDNKRPSGIPERFSGSNSGNTATLTISGTQAMDEADYYCQAWDSSTALYVFGTGTKV | 0.44 | 51.1 | – | – | – | – | – | – |
| 3C2 IgA2 anti-CD117 antibody (Example 8) (antibody, V domains shown) VH: EVQLAESGGDLVQPGGSLRLSCAASGFTFSSYAMSWVRQAPGKGLEWVSAISGSGGSTYYADSVKGRFTISRDNSKNTLYLQMNSLRAEDTAIYYCARDLRVYAMEAFDIWGQGTMVTVSS VL: SYELTQDPAVSVALGQTVRITCQGDSLRDYYANWFQQKPGQAPLLVIFYDSDRPSGIPERFSGSNSGNTATLTISRVEAGDEADYYCQAWDSSSDHWVFGGGTKL | – | 3.38 | – | – | – | – | – | – |
| 4A2 IgA2 anti-CD117 antibody (Example 8) (antibody, V domains shown) VH: EVQLLESGGGLVQPGGSLRLSCAASGFTFSDYGMSWVRQAPGKGLEWVSAIGYGGGGKYYADSVKGRFTISRDNSKNTLYLQMNSLRAEDTAVYYCAKDTWWLAGLFDYWGQGTLVTVSS VL: EIVLTQSPGTLSLSPGKRATLSCRASQSVSNSYLAWYQQKPGQPPKLLIYWASTRESGVPDRFSGSGSGTDFTLTISSLQAEDVAVYYCQQYYSTPLTFGGGTKVEIKR | 0.64 | 95.3 | – | – | – | – | – | – |
| hu3B3 IgG4 (hu3B3-hLG4) (antibody) heavy: not shown light: SYELTQPPSVSVSPGQTASITCSGDKVGAKYVFWYQQKPGQSPVLVVYQDNKRPSGIPERFSGSNSGNTATLTISGTQAMDEADYYCQAWDSSTALYVFGTGTKVTVLGQPKANPTVTLFPPSSEELQANKATLVCLISDFYPGAVTVAWKADGSPVKAGVETTKPSKQSNNKYAASSYLSLTPEQWKSHRSYSCQVTHEGSTVEKTVAPTECS | – | – | 9 | no binding (tested: 225 nM) | – | – | – | – |
| hu3C2 IgG4 (hu3C2-hLG4p) (antibody) heavy: not shown light: SYELTQDPAVSVALGQTVRITCQGDSLRDYYANWFQQKPGQAPLLVIFYDSDRPSGIPERFSGSNSGNTATLTISRVEAGDEADYYCQAWDSSSDHWVFGGGTKLTVLGQPKAAPSVTLFPPSSEELQANKATLVCLISDFYPGAVTVAWKADGSPVKAGVETTKPSKQSNNKYAASSYLSLTPEQWKSHRSYSCQVTHEGSTVEKTVAPTECS | – | – | 14 | no binding (tested: 225 nM) | – | – | – | – |
| 3B2 IgA2 anti-CD117 antibody (Example 8) (antibody, V domains shown) VH: QVQLQESGPGLVKPSETLSLTCTVSGYSISSGYYWGWIRQPPGKGLEWIGSIYHSGSTYYNPSLKSRVTISVDTSKNQFSLKLSSVTAADTAVYYCARVGVRYFDWLLYGAFDIWGQGTMVTVSS VL: SYELTQPPSVSVSPGQTATITCSGDKLGETYVHWYQHQSGQSPILVVYQDFKRPSGIPERFSGSNSGNTATLTISGTQAMDEADYYCQAWDSSTAVFGGGTKL | 4.51 | 42.7 | – | – | – | – | – | – |

The next lines start with results.

| EC50 of trogocytosis (ADCT; DILC18 membrane uptake by neutrophils from CD117-transfected 293 cells) [1] [nM] | Normalised uptake (B max) in %, ADCT [1] [%] | Kd [2] [nM] | binding result [3] | Kd [5] [nM] | Kd [6] [nM] | Kd [7] [nM] | Binder | further results |
| --- | --- | --- | --- | --- | --- | --- | --- | --- |
| – | – | – | – | 4.4 | 0.49 | 2.5 | hu3B3 IgA2 (hu3B3-hLhA2 (P221R)) (antibody) heavy: EVQLVESGGGVVQPGRSLRLSCAASGFTFSSYAMHWVRQAPGKGLEWVSVIYSGGSTYYADSVKGRFTISRDNSKNTLYLQMNSLRAEDTAVYYCARDSSGYRGDFDYWGQGTLVTVSSASPTSPKVFPLSLDSTPQDGNVVVACLVQGFFPQEPLSVTWSESGQNVTARNFPPSQDASGDLYTTSSQLTLPATQCPDGKSVTCHVKHYTNSSQDVTVPCRVPPPPPCCHPRLSLHRPALEDLLLGSEANLTCTLTGLRDASGATFTWTPSSGKSAVQGPPERDLCGCYSVSSVLPGCAQPWNHGETFTCTAAHPELKTPLTANITKSGNTFRPEVHLLPPPSEELALNELVTLTCLARGFSPKDVLVRWLQGSQELPREKYLTWASRQEPSQGTTTFAVTSILRVAAEDWKKGDTFSCMVGHEALPLAFTQKTIDRLAGKPTHVNVSVVMAEVDGTCY light: SYELTQPPSVSVSPGQTASITCSGDKVGAKYVFWYQQKPGQSPVLVVYQDNKRPSGIPERFSGSNSGNTATLTISGTQAMDEADYYCQAWDSSTALYVFGTGTKVTVLGQPKANPTVTLFPPSSEELQANKATLVCLISDFYPGAVTVAWKADGSPVKAGVETTKPSKQSNNKYAASSYLSLTPEQWKSHRSYSCQVTHEGSTVEKTVAPTECS | binding result [4]: no binding (tested: 200 nM (highest CD117 concentration)) |
| – | – | – | – | 20.9 | 2.44 | 9.3 | hu3C2 IgA2 (hu3C2-hLhA2 (P221R)) (antibody) heavy: EVQLAESGGDLVQPGGSLRLSCAASGFTFSSYAMSWVRQAPGKGLEWVSAISGSGGSTYYADSVKGRFTISRDNSKNTLYLQMNSLRAEDTAIYYCARDLRVYAMEAFDIWGQGTMVTVSSASPTSPKVFPLSLDSTPQDGNVVVACLVQGFFPQEPLSVTWSESGQNVTARNFPPSQDASGDLYTTSSQLTLPATQCPDGKSVTCHVKHYTNSSQDVTVPCRVPPPPPCCHPRLSLHRPALEDLLLGSEANLTCTLTGLRDASGATFTWTPSSGKSAVQGPPERDLCGCYSVSSVLPGCAQPWNHGETFTCTAAHPELKTPLTANITKSGNTFRPEVHLLPPPSEELALNELVTLTCLARGFSPKDVLVRWLQGSQELPREKYLTWASRQEPSQGTTTFAVTSILRVAAEDWKKGDTFSCMVGHEALPLAFTQKTIDRLAGKPTHVNVSVVMAEVDGTCY light: SYELTQDPAVSVALGQTVRITCQGDSLRDYYANWFQQKPGQAPLLVIFYDSDRPSGIPERFSGSNSGNTATLTISRVEAGDEADYYCQAWDSSSDHWVFGGGTKLTVLGQPKAAPSVTLFPPSSEELQANKATLVCLISDFYPGAVTVAWKADGSPVKAGVETTKPSKQSNNKYAASSYLSLTPEQWKSHRSYSCQVTHEGSTVEKTVAPTECS | binding result [4]: no binding (tested: 200 nM (highest CD117 concentration)) |
| – | – | 49 | no binding (tested: 225 nM) | 43.4 | 19.9 | 38.3 | hu4A2 IgG4 (hu4A2-hKG4p) (antibody, Human IgG4, kappa) heavy: not shown light: IVLTQSPGTLSLSPGKRATLSCRASQSVSNSYLAWYQQKPGQPPKLLIYWASTRESGVPDRFSGSGSGTDFTLTISSLQAEDVAVYYCQQYYSTPLTFGGGTKVEIKRTVAAPSVFIFPPSDEQLKSGTASVVCLLNNFYPREAKVQWKVDNALQSGNSQESVTEQDSKDSTYSLSSTLTLSKADYEKHKVYACEVTHQGLSSPVTKSFNRGEC | – |
